# Assay results taken from US20160083711.
# T1: fluorogenic peptide (MCA)Lys-Lys-Pro-Ala-Glu-Phe-Phe-Ala-Leu-Lys(DNP)
# T1 chain: KKPAEFFALK
# B1: proCardosinB lacking the PSI region (pCBΔPSI) (protein)
# chain: MVSNGGLLRVGLKKRKVDRLDQLRAHGVHMLGNARKDFGFRRTLRDSGSGIVALTNDRDTAYYGEIGIGTPPQNFAVIFDTGSSDLWVPSTKCDTSLACVIHPRYDSGDSSTYKGNGTTASIQYGTGAIVGFYSQDSVEVGDLVVEHQDFIETTEEDDTVFLKSEFDGILGLGFQEISAGKAVPVWYNMVNQGLVEEAVFSFWLNRNVDEEEGGELVFGGVDPNHFRGNHTYVPVTRKGYWQFEMGDVLIGDKSSGFCAGGCAAIADSGTSFFAGPTAIITQINQAIGAKGGGGSAESIVDCNGISSMPNIAFTIGSKLFEVTPEQYIYKVGEGEAATCISGFTALDIMSPQGPIWILGDMFMGPYHTVFDYGKLRVGFAEAV
# Molecular target: T1, fluorogenic peptide …
protein,measurement,value
B1,Km,8.7 µM
same,VMax,2.15e-05 µmol/s
same,kcat,36.5 s⁻¹
same,kcat/Km,4.2e+06 M⁻¹ s⁻¹
